From patent US20100035361A1 (published 2010) come the findings set out here.

First the molecules themselves.
B1: anti-Her2 two helix binder (SEQ ID NO. 26) (designed binder)
chain: VENKCNK[Aib]MRN[Aib]YWE[Aib]ALLPNLNNQ[Aib]KRA[Aib]IRS[Aib]YDDPC-NH2
modifications: cysteine pairing not given here
notes: Cys at 5 and 39
B2: anti-Her2 two helix binder (SEQ ID NO. 25) (designed binder)
chain: VENKCNKEMRNAYWEIALLPNLNNQ[Aib]KRA[Aib]IRS[Aib]YDDPC-NH2
modifications: cysteine pairing not given here
notes: Cys at 5 and 39
B3: anti-Her2 two helix binder (SEQ ID NO. 24) (designed binder)
chain: VENKCNK[Aib]MRN[Aib]YWE[Aib]ALLPNLNNQQKRAFIRSLYDDPC-NH2
modifications: cysteine pairing not given here
notes: Cys at 5 and 39
B4: anti-Her2 two helix binder (SEQ ID NO. 23) (designed binder)
chain: VENKCNKEMRNAYWEIALLPNLNNQQKRAFIRSLYDDPX
modifications: C^1 = hindered cysteine (penicillamine) at 39, disulfide linkage to natural Cys 5
B5: anti-Her2 two helix binder (SEQ ID NO. 27), peptide with Ala29Aib (designed binder)
chain: B4 chain with A29X, X39C
modifications: X = alpha amino isobutyric acid (Aib) at 29
notes: Cys at 5 and 39
B6: anti-Her2 two helix binder (SEQ ID NO. 19) (designed binder)
chain: B4 chain with C5X, X39C
modifications: C^1 = hindered cysteine (penicillamine) at 5, disulfide linkage to natural Cys 39
B7: anti-Her2 two helix binder (SEQ ID NO. 20) (designed binder)
chain: B4 chain with C5X, X39C
modifications: C^2 = extended cysteine (homocysteine) at 5, disulfide linkage to natural Cys 39
B8: anti-Her2 two helix binder (SEQ ID NO. 12), peptide with a covalent bridge between two E^1 residues (designed binder)
chain: B4 chain with E8X, E15X, X39C
modifications: E^1 = O-allyl glutamic acid at 8 and 15 joined by a covalent bridge (ring closing metathesis)
notes: Cys at 5 and 39

Positions count from the first letter of the chain named. Non-standard residues stand in square brackets, D forms with d. No end group written: not given here. Aib = CC(C)(N)C(=O)O

In the first test the target is T1, extracellular domain of the Her2/neu antigen as a conjugate with the Fc region of human IgG (Fc-Her2), R&D … (human, UniProt P04626 23-652).
T1 construct: extracellular domain; Bought reagent; not shown: Fc region of human IgG
As to the kind of experiment: binding analysis (method not given; SPR per Example 2).
For the molecule B1, the binding result was “no binding”. On the same count and under the same terms, for B2 the value was “no binding”. As for B3, the binding result is listed as “no binding”.

The target in the next test is T1, extracellular domain of the Her2/neu …. As to the kind of experiment: SPR (Biacore) relative binding, about 5 ug/ml peptide.
Procedure: Binding interactions between the binder and the Her2/neu antigen was measured in vitro using surface plasmon resonance (SPR) detection on a BIAcore™ 3000 instrument (Piscataway, N.J.). The extracellular domain of the Her2/neu antigen was obtained as a conjugate with the Fc region of human IgG (Fc-Her2) from R&D Systems and covalently attached to a CM-5 dextran-functionalized sensor chip (BIAcore™) pre-equilibrated with HBS-EP buffer (0.01M HEPES pH 7.4, 0.15M NaCl, 3 mM EDTA, 0.005% v/v surfactant P20) at 10 μL/min and subsequently activated with 1-ethyl-3-[3-dimethylaminopropyl]carbodiimide hydrochloride (EDC) and N-hydroxysuccinimide (NHS). The Fc-Her2 (5 μg/ml) in 10 mM sodium acetate (pH 5.5) was injected onto the activated sensor chip until the desired immobilization level was achieved (2 min). Residual activated groups on the sensor chip were blocked by injection of ethanolamine (1 M, pH 8.5). Any non-covalently bound conjugate was removed by repeated (n=5) washing with 2.5 M NaCl₂, 50 mM NaOH.
A second flow cell on the same sensor chip was treated identically, except with no Fc-Her2 immobilization, to serve as a control surface for refractive index changes and non-specific binding interactions with the sensor chip. Prior to the kinetic study, binding of the target analyte was tested on both surfaces and a surface stability experiment was performed to ensure adequate removal of the bound analyte and regeneration of the sensor chip following treatment with 2.5 M NaCl, 50 mM NaOH. SPR sensorgrams were analyzed using the BiaEval (BIAcore) software. The robustness of the kinetic model was determined by evaluation of the residuals and standard error for each of the calculated kinetic parameters, the “goodness of the fit” (χ2<10), and a direct comparison of the modeled sensorgrams to the experimental data.
B4: the binding result is “binds”.

On to B5, for which the binding result was “binds”. On the same count and under the same terms, the entry for B6 is “binds”. On to B7, for which the binding result is reported as “binds”. Same read-out and setting: for B8 the value was “binds”.
